Results on 19 molecules are retold here after US20220356230A1 (published 2022).

The target of experiment [1] is SARS-CoV-2 Spike Protein (S1 Subunit, Fc Tag) (Sino 40591-V02H) (SARS-CoV-2, UniProt P0DTC2 16-685). Kind of experiment: Luminex bead assay, supernatant on antigen microspheres.
Experiment [2] addresses SARS-CoV-2 Spike Protein (S1 Subunit, His Tag) (Sino 40591-V08H) (SARS-CoV-2, UniProt P0DTC2 16-685). The description is as above.
The target in experiment [3] is SARS-CoV-2 Spike Protein (S1 Subunit, Fc Tag) (Sino 40591-V02H) (SARS-CoV-2, UniProt P0DTC2 16-685). In words: Luminex bead assay, antibody supernatant, antigen on microspheres.
For experiment [4], the target named is SARS-CoV-2 Spike Protein (S1 Subunit, His Tag) (Sino 40591-V08H) (SARS-CoV-2, UniProt P0DTC2 16-685). The experiment is described as above.

B1: mAb10964 (antibody, V domains shown)
VH: QVQLQESGPGLVKPSETLSLTCTVSGGSINNYYWIWIRQPPGKGLEWIGYIYHSGSTNYNPSLKSRVTISVDTSKNQFSLKVSSVTAADTAVYYCANMVRGVYEDDYWGQGTLVTVSS
VL: DIQMTQSPSSLSASVGDRVTITCRASQSISNYLNWYQQKPGKAPKLLIFAASSLRSGVPSRFSGSGSGTDFTLTISSLHPEDFATYYCQQNYNTPLTFGPGTKVDIKR
Regarding B1, the “Binding signal (MFI)” value in experiment [1] came out at 18600 MFI; in experiment [2], 24200 MFI.

B2: mAb10982 (antibody, V domains shown)
VH: EVQLVESGGGLVQPGGSLRLSCAASGLTVSSNYMSWVRQAPGKGLEWVSVIYSGGTTYYADSVKGRFTISRHNSKNTLSLQMNSLRAEDTAVYYCARGEGANYYGMDVWGQGTTVTVSS
VL: QSVLTQPPSVSGAPGQRVTISCTGSSSNIGTGYDVHWYQQLPGTAPKLLIYGNSNRPSGVPDRFSGSKSGTSASLAITGLQAEDEADYYCQSYDSSLSGYVVFGGGTKLTVLG
With B2, the “Binding signal (MFI)” value in experiment [3] was 10800 MFI; in experiment [4] it was 14000 MFI.

B3: mAb10986 (antibody, V domains shown)
VH: EVQLVESGGGLVQPGGSLRLSCAASEFTVSSNYMSWVRQAPGKGLEWVSVIYSGGSTFYADSVKGRFTISRDNSKNTLYLQMNSLRAEDTAVYYCARALPYGDLHFDYWGQGTLVTVSS
VL: QSVLTQPPSVSGAPGQRVTISCTGSSSNIGTGYDVHWYQQLPGTAPKLLIYGNTNRPSGVPDRFSGSKSGTSASLAITGLQAEDEADYYCQSYDSSLSDSYVFGTGTKVTVLG
In the case of B3, the “Binding signal (MFI)” value worked out at 16000 MFI in experiment [1] and 19100 MFI in experiment [2].

B4: mAb10985 (antibody, V domains shown)
VH: EVQLVESGGGLVQPGRSLRLSCAASGFTFDDYAMHWVRQAPGKGLEWVSGISWNRGSIGYADSVKGRFTISRDNAKNSLYLQMSSLRAEDTALYYCAKDGERWDSVVVPSARNGMDVWGQGTTVTVSS
VL: QSVLTQPPSVSGAPGQRVTISCTGSSSNIGAGYDVHWYQQLPGTAPKLLIYGNSNRPSGVPDRFSGSKSGTSASLAITGLQAEDEADYYCQSYDSSLSGSYVFGTGTKVTVLG
Turning to B4, the “Binding signal (MFI)” value in experiment [1] worked out at 16200 MFI.

B5: mAb10989 (antibody, V domains shown)
VH: QVQLVQSGAEVKKPGASVKVSCKASGYIFTGYYMHWVRQAPGQGLEWMGWINPNSGGANYAQKFQGRVTLTRDTSITTVYMELSRLRFDDTAVYYCARGSRYDWNQNNWFDPWGQGTLVTVSS
VL: QSALTQPASVSGSPGQSITISCTGTSSDVGTYNYVSWYQQHPGKAPKLMIFDVSNRPSGVSDRFSGSKSGNTASLTISGLQAEDEADYYCSSFTTSSTVVFGGGTKLTVLG
With B5, the “Binding signal (MFI)” value in experiment [1] was found to be 12300 MFI; in experiment [2], 14200 MFI.

B6: mAb10921 (antibody, V domains shown)
VH: EVQLVESGGGLVQPGGSLRLSCAASGITVSSNYMSWVRQAPGKGLEWVSVIYSGGSTFYADSVKGRFTISRHNSKNTLYLQMNSLRAEDTAVYYCARERNFDAFDIWGQGTMVTVSS
VL: DIQMTQSPSSVSASVGDRVTITCRASQGISSWLAWYQQKPGKAPKLLIYAASSLQSGVPSRFSGSGSGTDFTLTISSLQPEDFATYYCQQANSFPLFTFGPGTKVDIKR
Regarding B6, the “Binding signal (MFI)” value in experiment [3] amounted to 8960 MFI; in experiment [4], 12200 MFI.

B7: mAb10957 (antibody, V domains shown)
VH: EVQLVESGGGLVQPGGSLRLSCAASGVTVSSNYMSWVRQAPGKGLEWVSVIYSGGSTFYADSVKGRFTISRDNSKNTLFLQMNSLRIEDTAVYYCARDLGPYGMDVWGQGTTVTVSS
VL: DIQLTQSPSFLSASVGDRVTITCRASQGISSYLAWYQQKPGKAPKLLIYAASTLQSGVPSRFSGSGSGTQFILTISSLQPEDFATYYCQQLNSYPGFTFGPGTKVDIKR
Regarding B7, the “Binding signal (MFI)” value stood at 8450 MFI in experiment [1] and 12000 MFI in experiment [2].

B8: mAb10971 (antibody, V domains shown)
VH: EVQLVESGGGLIQPGGSLRLSCAASGVTVSSNYMSWVRQAPGKGLEWVSVIYSGGSTFYSDSVKGRFSISRDNSKNTLYLQMNSLRAEDTAVYYCARDLYYYGMDVWGQGTTVTVSS
VL: DIQLTQSPSFLSASVGDRVTITCRASQGISTYLAWYQQKPGKAPKLLIYAASTLQSGVPSRFSGSGSGTEFTLTISSLQPEDFATYYCQQLDSYPGLTFGGGTKVEIKR
Consider B8, for which the “Binding signal (MFI)” value came to 17000 MFI in experiment [1] and 21600 MFI in experiment [2].

B9: mAb10913 (antibody, V domains shown)
VH: EVQLVESGGGLVQPGGSLRLSCAASGFTFRNYEMNWVRQAPGKGLEWVSYITSSGSTMYYADSVKGRFTISRDNAKNSLYLQMNSLRAEDTAVYYCARDGFYYYYAMDVWGQGTTVTVSS
VL: QSVLTQPPSVSAAPGQKVTISCSGSSSNIGNNYVSWYQQLPGTAPKLLIYDNNKRPSGIPDRFSGSKSGTSATLGITGLQTGDEADYYCGTWDSSLSVGRVFGTGTKVTVLG
Turning to B9, the “Binding signal (MFI)” value turned out to be 18900 MFI in experiment [3] and 24900 MFI in experiment [4].

B10: mAb10934 (antibody, V domains shown)
VH: not shown
VL: DIQMTQSPSSLSASVGDRVTITCQASQDIWNYINWYQQKPGKAPKLLIYDASNLKTGVPSRFSGSGSGTDFTFTISSLQPEDIATYYCQQHDDLPPTFGQGTKVEIKR
Turning to B10, the entries for the “Binding signal (MFI)” value in experiment [3] and in experiment [4] were 20600 MFI and 27500 MFI, respectively.

B11: mAb10967 (antibody, V domains shown)
VH: EVQLVESGGGLVQPGGSLRLSCAASGFTVSSNYMSWVRQAPGKGLEWVSVIYPGGSTFYADSVKGRFTISRDNSKNTLYLQMNSLRAEDTAVYYCARDQRDFAWGQGTLVTVSS
VL: DIQMTQSPSSLSASVGDRVTITCQASQDISNYLNWYQQKPGKAPKLLIYDASNLETGVPSRFSGSGSGTDFTFTISGLQPEDIATYYCQQYDNLPPTFGQGTRLEIKR
Turning to B11, the “Binding signal (MFI)” value in experiment [1] was determined as 15800 MFI; in experiment [2], 21900 MFI.

B12: mAb10935 (antibody, V domains shown)
VH: EVQLVESGGGLVQPGGSLRLSCAASGFTVSSNYMSWVRQAPGKGLEWVSLIYSGGSTYYADSVKGRFTISRHNSKNTLYLQMNSLRSEDTAVYYCARVPLGDYYYGMDVWGQGTTVTVSS
VL: DIQMTQSPSSLSASVGDRVTITCQASQDINKYLNWYQQKPGKAPKLLIYDASNLETGVPSRFSGSGSGTDFTFTISSLQPEDIATYYCQQSDNLPLTFGGGTKVEIKR
For B12, the “Binding signal (MFI)” value in experiment [3] is 20000 MFI; in experiment [4] it was 25600 MFI.

B13: mAb10954 (antibody, V domains shown)
VH: EVQLVESGGGLVQPGGSLRLSCAASGITVSSNYMSWVRQAPGKGLEWVSLIYSGGSTYYADSVKGRFTISRDNSKNTLYLQMNSLRVEDTAVYYCARDHGMAAAGYNYWGQGTLVTVSS
VL: DIQMTQSPSSLSASVGDRVTITCQASQDINKYLNWYQQKPGKAPKLLIYDASNLETGVPSRFSGSGSGTDFTFTINSLQPEDFATYFCQQYDNLPPAFGQGTKVEIKR
On to B13, for which the “Binding signal (MFI)” value in experiment [1] was 16600 MFI; in experiment [2] it was 21300 MFI.

B14: mAb10966 (antibody, V domains shown)
VH: EVQLVESGGGLVQPGGSLRLSCAASGLTVSSNYMSWVRQAPGKGLEWVSVIYSGGSTFYADSVKGRFTISRDNSKNTLYLQMNSLRPEDTAVYYCAREGRIAATGYGMDVWGQGTTVTVSS
VL: not shown
Take B14: the entries for the “Binding signal (MFI)” value in experiment [1] and in experiment [2] were 16400 MFI and 23300 MFI, respectively.

B15: mAb10939 (antibody, V domains shown)
VH: EVQLVESGGGLVQPGGSLRLSCAASGLTVSSNYMNWVRQVPGKGLEWVSVIYSGGSKFYVDSVKGRFTISRHNSKNTLYLQMNSLRPEDTAVYYCTRDAQYYGMDVWGQGTTVTVSS
VL: DIQMTQSPSSLSASVGDRVTITCRASQSISTYLHWYQQKPGEAPKLLIYAASSLQSGVPSRFSGSGSGTDFTLTISSLQPEDFATYYCQQSYSTPPEIFGQGTKLEIKR
Take B15: the “Binding signal (MFI)” value in experiment [3] amounted to 18200 MFI; in experiment [4], 23900 MFI.

B16: mAb10956 (antibody, V domains shown)
VH: EVQLVESGGGLVQPGGSLRLSCAASGLTVSSNYMSWVRQAPGKGLEWVSVIYSGGSTFYADSVKGRFTISRDNSKNTLYLQMNSLRAEDTAVYYCARDLIKYGMDVWGQGTTVTVSS
VL: not shown
As to B16, the “Binding signal (MFI)” value was found to be 15000 MFI in experiment [1] and 20000 MFI in experiment [2].

B17: mAb10937 (antibody, V domains shown)
VH: QITLKESGPTLVKPTQTLTLTCTFSGFSLSTNVVGVGWIRQPPGKALEWLALIYWNDDKRYSPSLKSRLTITKDTSKNQVVLTMTNMDPVDTATYYCAHGPTGDYFDYWGQGTLVTVSS
VL: not shown
In the case of B17, the “Binding signal (MFI)” value came out at 19600 MFI in experiment [3] and 26400 MFI in experiment [4].

B18: mAb10930 (antibody, V domains shown)
VH: EVQLVESGGGLVQPGRSLRLSCAASGFTFDDYAMYWVRQAPGKGLEWVSGISWNSGSIGYADSVKGRFTISRDNAKNSLYLQMNSLRAADTALYYCAKDKDWNSRGYYYYGMDVWGQGTTVTVSS
VL: not shown
For B18, the figures for the “Binding signal (MFI)” value in experiment [3] and in experiment [4] were 16500 MFI and 21200 MFI, respectively.

B19: mAb10932 (antibody, V domains shown)
VH: EVQLVESGGGLVQSGGSLRLSCAASGLTVSSNYMSWVRQAPGKGLEWVSVIYSGGSTFYSDSVKGRFTISRHNSKNTLYLQMNSLRAEDTAVYYCARARGDAFDIWGQGTMVTVSS
VL: not shown
Consider B19, for which the “Binding signal (MFI)” value in experiment [3] came to 17600 MFI; in experiment [4], 22100 MFI.
